Among the data in paper PMC9231623, “ESCPE-1 mediates retrograde endosomal sorting of the SARS-CoV-2 host factor Neuropilin-1” (Proceedings of the National Academy of Sciences of the …, 2022) are Kd values, retold here.

In one assay the target is T1, SNX5 PX domain (UniProt Q9Y5X3 25-172).
T1 construct: PX domain of sorting nexin 5, from a pGEX-4T-2 construct; also called PX domain of SNX5; source: E. coli BL21 (DE3), purified (glutathione Sepharose 4B, thrombin cleavage, Superdex 75 gel filtration)
T1 sequence (looked up): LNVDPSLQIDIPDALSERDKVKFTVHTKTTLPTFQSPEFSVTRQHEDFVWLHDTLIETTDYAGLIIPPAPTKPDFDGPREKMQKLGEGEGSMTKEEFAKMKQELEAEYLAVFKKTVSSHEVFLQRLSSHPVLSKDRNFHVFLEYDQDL
As to the kind of experiment: ITC; Microcal ITC200, 298 K; 50 mM Hepes pH 7.5, 200 mM NaCl, 0.5 mM TCEP; SNX5/6 PX titrated with NRP1 peptide, 13 injections; single site binding model; mean of three experiments. The conditions noted are these: both partners purified. On the technique in general: In ITC the heat of successive injections is recorded.

The next assay has as its target T2, SNX6 PX domain (UniProt Q9UNH7 26-173).
T2 construct: PX domain of sorting nexin 6, from a pGEX-4T-2 construct; also called PX domain of SNX6; source: E. coli BL21 (DE3), purified (glutathione Sepharose 4B, thrombin cleavage, Superdex 75 gel filtration)
T2 sequence (looked up): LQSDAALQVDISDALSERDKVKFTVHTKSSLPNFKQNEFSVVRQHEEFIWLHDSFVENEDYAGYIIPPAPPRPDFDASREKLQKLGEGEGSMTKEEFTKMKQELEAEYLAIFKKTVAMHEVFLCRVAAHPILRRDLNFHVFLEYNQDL
Described as above. The conditions noted are these: both partners purified.

B1: NRP1 peptide (residues 894 to 918 of the cytosolic tail) (peptide)
peptide: not shown
notes: Neuropilin-1 cytosolic tail, residues 894 to 918; only stretches of it are printed (898-NYNFELV-904, 905-DG-906, 907-VKLKKD-912); also called synthetic peptide corresponding to these residues in NRP1; source: synthetic peptide
As to B1, the results for the Kd with SNX5 PX domain and with SNX6 PX domain were 19.8 µM and 14.3 µM, respectively.
